Source: the supplement of paper PMC9170038

Test system: MS2 coat protein
Test: apparent KD of MS2 coat protein; designed switch direction (-1 OFF switch, 1 ON switch): -1; higher = weaker reporter binding
Summary of the method: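 RNA switches sharing common flanks were transcribed by stalled E. coli RNA polymerase on Illumina chips. A doubling series of SNAP-549-labelled MS2 coat protein, from 0.7 or 1.5 nM to 3 µM, was applied in Tris-HCl pH 7.5 buffer with KCl, MgCl2, BSA, DTT, tRNA and Tween-20. Each step lasted 0.8–1.5 h at the bottom of the series and 10–20 min at the top. Normalised cluster fluorescence was curve-fitted, giving apparent KD as the per-design median over clusters.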

[1] = input ligand: microRNA oligo, concentration not stated
[2] = Eterna round: R95, input ligand: FMN 200 uM
[3] = Eterna round: R95, input ligand: microRNA oligo, concentration not stated
[4] = Eterna round: R95, input ligand: none

Sequence	apparent KD of MS2 coat protein (input ligand: FMN 200 uM)	apparent KD of MS2 coat protein [1]	apparent KD of MS2 coat protein (input ligand: none)	apparent KD of MS2 coat protein [2]	apparent KD of MS2 coat protein [3]	apparent KD of MS2 coat protein [4]
UUACGAUUGCUAGGAUAUCCACGAAUAGCUCCGGGAGAAGGAGCUCUCGUACAUGAGGAUCACCCAUGUCAGGGUGUCCAAUUU [Onraedin] (Eterna round: R96, puzzle: Exclusion NG 1)	38.1 nM	21.4 nM	40.7 nM			
AUAAGCUUUGAUAUCCUUAACAUGAGGAUCACCCAUGUUCGUCUUAUGAUGGUCUGAUCCCUGAGGAUCGGACCGUU [JL-sv1-2.06 Brourd Mod] (puzzle: Sensor v3, turn-off variant 1)				34.4 nM	88.4 nM	33.1 nM
GGGCCCGGUGUGAGGAUAUGUUUGGGUAAACCCGGGCAGAAGGCACAUGAGGAUCACCCAUGUAAGCCGGGCCC [-37.5, -35.4 kcal, A 23%, 5bbis-0] (Eterna round: R97, puzzle: Brourd's mod of Exclusion 4)	14.7 nM		19.2 nM			
CAGGUGUUAGGAUAUCGGAGAUCGAGACCGACGGGAUGAGCCGAGAAGGAACAUGAGGAUCACCCAUGUAGGUG [JR_Exclu4_Sub034] (Eterna round: R96, puzzle: Exclusion 4)		304 nM				
AAUAACAAGCCGAUCCUCCACAUGAGGAUCACCCAUGUGCUCGUCUUGUAAAGUACUAUCACGAAAGUGAUAGUACA (Eterna round: R97, puzzle: Sensor, turn-off variant 1)	39.2 nM		44 nM			
UUUAUGUCAGGAUAUGAGUAGUAGAACAAUAGUACUACUACUCAGAAGGGACAUGAGGAUCACCCAUGUUUCUC [Fiskers Ex 4 Super stable 44 mod 24] (puzzle: Exclusion 4)					22.6 nM	
GUUAUGCAGCAGGAUAUCGAUCCGCGGUAUGAUCGAGAAGGGCUGACAUGAGGAUCACCCAUGUGCGUCCUAGG [jl-ex6-4.46 ViennaUCT mod] (Eterna round: R97, puzzle: Exclusion 6)	170 nM		36.6 nM			
UAAUAAAGUGUGAGGAUAUGCUGGUCGAUAGAUCAGCAGAAGGCACAUGAGGAUCACCCAUGUAAUAUAUUUUA [Mat - Exclusion 4 - JL Mod - D46] (Eterna round: R96, puzzle: Brourd's mod of Exclusion 4)	238 nM	40.6 nM	56.1 nM			
CGCUGGACAGGAUAUGUUCUUGGGCACUUGAGGAUCACCCAAGUCAUCGGGACAUCAGGCACAGAAGGGUUUAUGG [salish99_ex5_r4_026] (Eterna round: R97, puzzle: Exclusion 5)	19.1 nM		21.1 nM			
CCAUGGAGUGUGAGGAUAUGCUGGUCCUUGGAUCAGCAGAAGGCACAUGAGGAUCACCCAUGUGAAUACCGUGG [Mat - Exclusion 4 - JL Mod - D83] (puzzle: Brourd's mod of Exclusion 4)					31.4 nM	
GUCCUCAUGGCGCCUAAACACAUGAGGAUCACCCAUGUACAGGCUUUUUGCCGUCUUAUAAUAAAACCGAGGAUGCG [Reanaor] (puzzle: Sensor v3, turn-off variant 1)				103 nM	157 nM	148 nM
UAUGGUUAAGUCAGGAUAUGCACGCAGAUUACAAUGCAGAAGGGACAUGAGGAUCACCCAUGUACACUCGUGUU [Ex4 #80] (Eterna round: R97, puzzle: Brourd's mod of Exclusion 4)	40.7 nM		31.8 nM			
ACGUUUUUUGAGGAUAUGCGACGUUCCUUCGUCGUAGAAGGCGAUACAUGAGGAUCACCCAUGUUUAUGGGCAU [LRO-Ex6-17] (puzzle: Exclusion 6)					86.4 nM	
UCGGCGCGAGGAUAUGCGGUUUGUGCUUUGGGCCCUGGCGUACAUGAGGAUCACCCAUGUAGAAGGCGCGUUGC [Apr-15 SS2-48] (puzzle: Exclusion 2)					17.1 nM	
GUAUCGUGAGGAUAUCUAGACUGACUUAGUACAUGUCAGCUGGAGAAGGCACAUGAGGAUCACCCAUGUGAUUA (puzzle: Exclusion 4)					22.2 nM	
CACCUCGUAGCAGGAUAUUAGAGCUUCCGCAAAUGAGAAGGGCUACGAAACACUUGAGGAUCACCCAAGUACCGUGGUCCUCUA [Mutated MS2 EX1.11] (Eterna round: R96, puzzle: Exclusion NG 1)	19.7 nM	14 nM	22.3 nM			
GAGGAGCAAGGAUAUACGAGGAGAGGGAAGAGAGGAGAGAGACAUGAGGAUCACCCAUGUAGAAGGUGCAAGGA [JR_Exclu2_Sub092] (puzzle: Exclusion 2)				46 nM	35.4 nM	43.8 nM

Sequence	apparent KD of MS2 coat protein (input ligand: FMN 200 uM)	apparent KD of MS2 coat protein [1]	apparent KD of MS2 coat protein (input ligand: none)	apparent KD of MS2 coat protein [2]	apparent KD of MS2 coat protein [3]	apparent KD of MS2 coat protein [4]
AUGGGUCCUCACGGAGCUACAUGAGGAUCACCCAUGUGGAUUGAGGAUAUCGUAACCCGACGGGACGAGAAGGCAGUUUACUGU [Ex NG3 #98] (Eterna round: R96, puzzle: Exclusion NG 3)	63.1 nM	23 nM	29.4 nM			
AGUGUGUGGCAGGAUAUGCAAUUAAUAGGUGAAGCAGAAGGGUCUACAUGAGGAUCACCCAUGUAUGCGGUUGA [Ex6 #23] (Eterna round: R97, puzzle: Exclusion 6)	297 nM		68.5 nM			
CUUUUGUGAGGAUAUUAGUAGUAAGUAAAUAAAAUUAUUACUAAGAAGGCACAUGAGGAUCACCCAUGUUCCUC [EX4 #81] (Eterna round: R97, puzzle: Exclusion 4)	108 nM		58 nM			
CGGCAUGUACAAGGAUAUCAGCACGAUUAGUGCUGAGAAGGUGUAACAUGAGGAUCACCCAUGUAGAUCAUUAACCGAUUAAUU [ENG1/9-A2] (Eterna round: R96, puzzle: Exclusion NG 1)	145 nM	64.3 nM	60.7 nM			
GGUUGGUGAGGAUAUACAUGAGGAUCACCCAUGUGAGAGAAAGAAGUGAGGAAGAAAAGUAGAAGGCGCUGACG [salish99_ex3_r3_054] (puzzle: Exclusion 3)				87.1 nM	40.4 nM	54.2 nM
UAUUAGCAAGCGAGAUCCCACAUGAGGAUCACCCAUGUGCUCGUCUUAUAAGGUACUGUGACGAUAGUCACGGUACC [Mat - Sensor, turn-off var - Eli Mod - D16] (Eterna round: R97, puzzle: Sensor, turn-off variant 1)	12.9 nM		14.8 nM			
GCGAAAACAAACAGGUGAAACAUGAGGAUCACCCAUGUCCUCAUUUGCUCGUCUUAUAAGCUAUGCGAAAGCAUAGC [Mat - Sensor v3 - turn-off var 1 - Eli Mod - D55] (puzzle: Sensor v3, turn-off variant 1)				283 nM	200 nM	348 nM
GUUGGUAAGUCAGGAUAUCCCUGUAAUGGCAGCGGAGAAGGGACAUGAGGAUCACCCAUGUGAACCUCCGGCGGAUAAACCCGC [Ancelave] (Eterna round: R96, puzzle: Exclusion NG 1)	111 nM	29.5 nM	23.6 nM			
AAUUAAUAUCAGGAUAUGACGUGCCUCGGCACGUCAGAAGGGAUGACAUGAGGAUCACCCAUGUGAUCAAUUAA [E6/1-A2] (Eterna round: R97, puzzle: Exclusion 6)	153 nM		28.7 nM			
UCAAUUUUGACAGGAUAUAGUUUUUGUUUCUCUCUAGAAGGGUCUGUGUACAUGAGGAUCACCCAUGUUCUUCUUAUUUAUAUU [JR_ExcNG1_Sub014] (Eterna round: R96, puzzle: Exclusion NG 1)	28.4 nM	28.6 nM	36.7 nM			
UCAUAACAUGAGGAUCACCCAUGUCAGGAUAUGAUACUAUGUACUUCGGUACAUAGUAUCAGAAGGGACAUACU [Ex1-3: 12] (puzzle: Exclusion 1)					103 nM	
UGGUAACAUGAGGAUCACCCAUGUCAGGAUAUCAGUAAGAAUAGAUUAGAUUAGAAUAUGAGAAGGGACUAUAU [Excluse me! 4 - Jieux - Exclusion 1] (puzzle: Exclusion 1)					30.9 nM	
AUGUAAGCGGAGGAUAUCUGGUGGAUACAGAUGGGAGAAGGUCGCACAUGAGGAUCACCCAUGUCGCAGAGAUG [Eternabot (L2) Solution 83] (Eterna round: R97, puzzle: Exclusion 6)	44.1 nM		55.3 nM			
GGGAAGAACCAACAAGUAGACAUGAGGAUCACCCAUGUAGACUUCAUGUGCACGCAAAGCGUGCAAGCUCGUCUUAU [AK-miRNA-r3-14.4] (Eterna round: R97, puzzle: Sensor, turn-off variant 1)	22.9 nM		19.8 nM			
AAGAAGGCCGUAGGAUAUACAGCAAGAACGCGAGUAGAAGGACGAUACAUGAGGAUCACCCAUGUACGUGGGUAGUGCUCGUGC [Soatceri] (Eterna round: R96, puzzle: Exclusion NG 1)	26 nM	10.9 nM	21.8 nM			
UCUCGUAGGCAAGGAUAUCCUACAUUGUUCUGGCCCGGGCAUGCUACAUGAGGAUCACCCAUGUGGGAGAAGGUGCGCCACUGC [Design 27] (Eterna round: R96, puzzle: Exclusion NG 2)	52.4 nM	39.7 nM	36.2 nM			
UUAUAUAGUGUGAGGAUAUGCUGGUCCUUGGAUCAGCAGAAGGCACAUGAGGAUCACCCAUGUAGUUAAUAAUA [Mat - Exclusion 4 - JL Mod - D16] (puzzle: Brourd's mod of Exclusion 4)				131 nM	30 nM	42.8 nM
